Laboratory results from IntAct's records for PubMed 25394380.

Biological target: aph1a_human APH1A (UniProt Q96BI3)
Sequence (Q96BI3 whole entry): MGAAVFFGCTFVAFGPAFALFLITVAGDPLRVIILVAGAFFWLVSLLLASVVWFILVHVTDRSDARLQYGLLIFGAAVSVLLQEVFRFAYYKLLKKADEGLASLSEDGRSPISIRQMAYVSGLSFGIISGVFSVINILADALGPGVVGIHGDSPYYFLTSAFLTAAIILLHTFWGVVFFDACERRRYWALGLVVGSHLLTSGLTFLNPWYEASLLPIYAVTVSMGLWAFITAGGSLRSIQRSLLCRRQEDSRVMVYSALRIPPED

Substance: Presenilin-1 (Homo sapiens) (from UniProt P49768) G206D
- effect of a mutation on the interaction: with no effect
